Experiments:
Assay in all cases: cell-based or functional assay
[1] = biological target: HIV-1 92RW020 Env (HIV-1 92RW020)
[2] = biological target: HIV-1 Env of isolate APV17 (HIV-1)
[3] = biological target: HIV-1 Env of isolate APV6 (HIV-1)
[4] = biological target: HIV-1 Env of isolate MG RM-D-004 (clade D), on pseudovirus (HIV-1)
[5] = biological target: HIV-1 Env of isolate MG RM-D-014 (clade D), on pseudovirus (HIV-1)
[6] = biological target: HIV-1 Env of isolate MG RM-D-016 (clade D), on pseudovirus (HIV-1)
[7] = biological target: HIV-1 Env of isolate MG RM-D-019 (clade D), on pseudovirus (HIV-1)
[8] = biological target: HIV-1 Env of isolate MG RM-D-024 (clade D), on pseudovirus (HIV-1)
[9] = biological target: HIV-1 Env of isolate MGRM-C-024 (clade C pseudovirus) (HIV-1)
[10] = biological target: HIV-1 Env of isolate MGRM-C-025 (clade C pseudovirus) (HIV-1)
[11] = biological target: HIV-1 Env of isolate MGRM-C-026 (clade C pseudovirus) (HIV-1)
[12] = biological target: HIV-1 Env of isolate MGRM-Chronic-B-004 (HIV-1)
[13] = biological target: HIV-1 Env of isolate MGRM-Chronic-B-008 (HIV-1)
[14] = biological target: HIV-1 Env of isolate MGRM-Chronic-B-012 (HIV-1)
[15] = biological target: HIV-1 Env of isolate MGRM-Chronic-B-017 (HIV-1)
[16] = biological target: HIV-1 Env of isolate MGRM-Chronic-B-018 (HIV-1)
[17] = biological target: HIV-1 Env of isolate MGRM-Chronic-B-023 (HIV-1)
[18] = biological target: HIV-1 Env of isolate MGRM-F1-018 (clade F pseudovirus) (HIV-1)
[19] = biological target: HIV-1 Env of isolate MGRM-F1-020 (clade F pseudovirus) (HIV-1)
[20] = biological target: HIV-1 Env of pseudovirus 92RW008 (subtype A) (HIV-1)
[21] = biological target: HIV-1 Env of pseudovirus 92UG031 (subtype A) (HIV-1)
[22] = biological target: HIV-1 Env of pseudovirus 92WR021 (subtype A) (HIV-1)
[23] = biological target: HIV-1 Env of pseudovirus 92WR024 (subtype A) (HIV-1)
[24] = biological target: HIV-1 Env of pseudovirus 92WR026 (subtype A) (HIV-1)
[25] = biological target: HIV-1 Env of pseudovirus 94UG103 (subtype A) (HIV-1)
[26] = biological target: HIV-1 Env of pseudovirus MGRM-A-003 (subtype A) (HIV-1)
[27] = biological target: HIV-1 Env of pseudovirus MGRM-A-009 (subtype A) (HIV-1)
[28] = biological target: HIV-1 JRCSF envelope glycoprotein (Env) on pseudovirus (HIV-1 isolate JRCSF (clade B)) (UniProt P20871)
[29] = biological target: HIV-1 Env of isolate PVO.4 (clade B pseudovirus) (HIV-1)
[30] = biological target: HIV-1 SF162 Env on pseudotyped virus (HIV-1 isolate SF162)

1443_C16 (PG16) (TCN-116) (antibody), sequence (VH): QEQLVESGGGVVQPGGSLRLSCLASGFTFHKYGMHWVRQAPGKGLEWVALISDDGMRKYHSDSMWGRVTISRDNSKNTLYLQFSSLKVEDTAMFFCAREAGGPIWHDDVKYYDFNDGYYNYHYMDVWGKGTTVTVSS
1443_C16 (PG16) (TCN-116) (antibody), sequence (VL): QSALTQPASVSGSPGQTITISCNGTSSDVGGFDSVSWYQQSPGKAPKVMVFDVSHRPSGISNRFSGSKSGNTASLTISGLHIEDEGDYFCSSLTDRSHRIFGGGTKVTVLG

With 1496_C09 (PG9) (TCN-109) (antibody) the IC50 (ug/ml), pseudovirus neutralization, TZM-bl assay [1] was 0.1 µg/mL, the IC50 (µg/mL), pseudovirus neutralization [2] was 34.8 µg/mL and the IC50 (µg/mL), pseudovirus neutralization [3] was 0.181 µg/mL. For the same substance, the IC50 (µg/mL), pseudovirus neutralization [4] was 0.06 µg/mL, the IC50 (µg/mL), pseudovirus neutralization [5] was 0.023 µg/mL and the IC50 (µg/mL), pseudovirus neutralization [6] was 0.098 µg/mL. It also gave an IC50 (µg/mL), pseudovirus neutralization [7] of 0.038 µg/mL, an IC50 (µg/mL), pseudovirus neutralization [8] of 0.038 µg/mL and an IC50 (µg/mL), pseudovirus neutralization [9] of 0.227 µg/mL. The IC50 (µg/mL), pseudovirus neutralization [10] was 0.148 µg/mL, the IC50 (µg/mL), pseudovirus neutralization [11] was 0.06 µg/mL and the IC50 (µg/mL), pseudovirus neutralization [12] was 0.533 µg/mL. It also gave an IC50 (µg/mL), pseudovirus neutralization [13] of 8.78 µg/mL, an IC50 (µg/mL), pseudovirus neutralization [14] of 0.2 µg/mL and an IC50 (µg/mL), pseudovirus neutralization [15] of 0.688 µg/mL. For the same substance, the IC50 (µg/mL), pseudovirus neutralization [16] was 0.216 µg/mL, the IC50 (µg/mL), pseudovirus neutralization [17] was 0.027 µg/mL and the IC50 (µg/mL), pseudovirus neutralization [18] was 0.019 µg/mL. It also gave an IC50 (µg/mL), pseudovirus neutralization [19] of 6.4 µg/mL, an IC50, pseudovirus neutralization [20] of 0.006 µg/mL and an IC50, pseudovirus neutralization [21] of 3.6 µg/mL. The IC50, pseudovirus neutralization [22] was 0.027 µg/mL, the IC50, pseudovirus neutralization [23] was 0.258 µg/mL and the IC50, pseudovirus neutralization [24] was 0.164 µg/mL. The IC50, pseudovirus neutralization [25] was 0.34 µg/mL, the IC50, pseudovirus neutralization [26] was 1.94 µg/mL and the IC50, pseudovirus neutralization [27] was 0.023 µg/mL. It also gave a neutralization IC50 [28] of 0.0048 µg/mL, a neutralization IC80 [28] of 0.0181 µg/mL and a neutralization IC90 [28] of 0.0391 µg/mL. The neutralization IC95 [28] was 0.0798 µg/mL.
PGV04 (antibody) was tested, and the IC50 (µg/mL), pseudovirus neutralization [2] was 0.309 µg/mL, the IC50 (µg/mL), pseudovirus neutralization [3] was 24.2 µg/mL and the IC50 (µg/mL), pseudovirus neutralization [4] was 43.2 µg/mL. For the same substance, the IC50 (µg/mL), pseudovirus neutralization [5] was 0.194 µg/mL, the IC50 (µg/mL), pseudovirus neutralization [6] was 0.201 µg/mL and the IC50 (µg/mL), pseudovirus neutralization [7] was 0.35 µg/mL. It also gave an IC50 (µg/mL), pseudovirus neutralization [8] of over 50 µg/mL, an IC50 (µg/mL), pseudovirus neutralization [9] of over 50 µg/mL and an IC50 (µg/mL), pseudovirus neutralization [10] of over 50 µg/mL. The IC50 (µg/mL), pseudovirus neutralization [11] was 0.303 µg/mL, the IC50 (µg/mL), pseudovirus neutralization [12] was 0.047 µg/mL and the IC50 (µg/mL), pseudovirus neutralization [13] was 0.166 µg/mL. For the same substance, the IC50 (µg/mL), pseudovirus neutralization [14] was over 50 µg/mL, the IC50 (µg/mL), pseudovirus neutralization [15] was 0.129 µg/mL and the IC50 (µg/mL), pseudovirus neutralization [16] was 0.164 µg/mL. It also gave an IC50 (µg/mL), pseudovirus neutralization [17] of 0.139 µg/mL, an IC50 (µg/mL), pseudovirus neutralization [18] of 0.027 µg/mL and an IC50 (µg/mL), pseudovirus neutralization [19] of 5.99 µg/mL. It also gave an IC50, pseudovirus neutralization [20] of 0.014 µg/mL, an IC50, pseudovirus neutralization [21] of 4.46 µg/mL and an IC50, pseudovirus neutralization [22] of 0.038 µg/mL. It also gave an IC50, pseudovirus neutralization [23] of 0.31 µg/mL, an IC50, pseudovirus neutralization [24] of 0.14 µg/mL and an IC50, pseudovirus neutralization [25] of 0.202 µg/mL. It also gave an IC50, pseudovirus neutralization [26] of 0.128 µg/mL and an IC50, pseudovirus neutralization [27] of 0.033 µg/mL.
1443_C16 (PG16) (TCN-116) (antibody) showed an IC50 (ug/ml), pseudovirus neutralization, TZM-bl assay [1] of 0.09 µg/mL, an IC50 (neutralization, TZM-bl pseudovirus assay) [29] of 12.3 µg/mL and a Neutralizing Antibody Assay: IC50; Virus/Ab Incubation 1 hour [30] of over 50 µg/mL. For the same substance, the Neutralizing Antibody Assay: IC50; Virus/Ab Incubation 18 hour [30] was over 50 µg/mL.

From patent US20250320281A1
